# Test results published in US20140205611A1.
# Tests used:
# Assay in all cases: cell-based or functional assay
# [1] = target: recombinant hGM-CSF expressed in E. coli (Fa. Biomol #2514) (human) (UniProt P04141)
# [2] = target: recombinant hGM-CSF from E. coli (Peprotech) (human) (UniProt P04141)
# [3] = target: recombinant hGM-CSF derived from yeast (Leukine, Berlex) (human) (UniProt P04141)
# recombinant hGM-CSF derived from yeast (Leukine, Berlex) (human), sequence (P04141 other isoform, or with tags, fused parts or gaps limits assumed, form in doubt): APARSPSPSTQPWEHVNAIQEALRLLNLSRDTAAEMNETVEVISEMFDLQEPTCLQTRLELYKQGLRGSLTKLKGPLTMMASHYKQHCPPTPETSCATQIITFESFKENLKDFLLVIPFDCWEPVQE
# recombinant hGM-CSF expressed in E. coli (Fa. Biomol #2514) (human), sequence (P04141 18-144 limits assumed): as the sequence (P04141 other isoform, or with tags, fused parts or gaps limits assumed, form in doubt) above, with L23R counted along it
# recombinant hGM-CSF from E. coli (Peprotech) (human), sequence (P04141 18-144 limits assumed): as the sequence (P04141 other isoform, or with tags, fused parts or gaps limits assumed, form in doubt) above, with L23R counted along it
Substance,"IC50 in TF-1 assay, hGM-CSF (E. coli) at 1.0 ng/ml final concentration [1]",TF-1 cell proliferation with 0.5 ng/mL rhGM-CSF (WST-1 assay) [2],TF-1 cell proliferation with 0.5 ng/mL rhGM-CSF (WST-1 assay) [3]
"rat-anti-human-GM-CSF IgG2a BVD2-21C11 (Fa. BD, #554503) (antibody)",8.26 nM,,
human anti-human cytomegalovirus monoclonal antibody (hIgG),,< 2 µg/mL,< 2 µg/mL
